US20040265961A1 (published 2004)

Tests used:
[1] = tested on: T1, hKSR-2-FLAG (full-length human KSR-2 with the FLAG epitope at its carboxyl terminus)
T1 sequence: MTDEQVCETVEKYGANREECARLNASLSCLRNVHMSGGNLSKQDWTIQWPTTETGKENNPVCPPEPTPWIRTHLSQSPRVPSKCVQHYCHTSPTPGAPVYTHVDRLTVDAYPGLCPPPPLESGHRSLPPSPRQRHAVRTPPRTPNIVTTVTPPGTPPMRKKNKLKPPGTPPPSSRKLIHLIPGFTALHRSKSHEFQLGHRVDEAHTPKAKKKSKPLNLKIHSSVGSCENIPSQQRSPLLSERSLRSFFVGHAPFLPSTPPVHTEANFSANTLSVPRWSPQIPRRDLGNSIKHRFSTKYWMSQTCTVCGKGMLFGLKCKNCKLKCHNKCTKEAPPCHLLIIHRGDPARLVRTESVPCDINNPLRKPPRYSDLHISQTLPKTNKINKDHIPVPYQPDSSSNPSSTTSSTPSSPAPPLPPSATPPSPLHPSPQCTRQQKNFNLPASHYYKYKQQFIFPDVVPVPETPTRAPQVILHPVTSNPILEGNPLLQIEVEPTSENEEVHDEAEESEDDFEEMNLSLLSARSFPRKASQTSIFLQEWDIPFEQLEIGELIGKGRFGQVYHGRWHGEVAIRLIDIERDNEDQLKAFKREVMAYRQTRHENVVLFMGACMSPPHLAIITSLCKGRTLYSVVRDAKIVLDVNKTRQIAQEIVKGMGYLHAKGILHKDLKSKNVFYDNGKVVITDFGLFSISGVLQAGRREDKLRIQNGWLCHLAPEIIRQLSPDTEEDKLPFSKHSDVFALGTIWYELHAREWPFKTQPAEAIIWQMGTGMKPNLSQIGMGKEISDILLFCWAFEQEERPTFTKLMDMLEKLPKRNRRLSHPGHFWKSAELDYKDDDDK

[2] = target: T2, hKSR-2-FLAG (full-length human KSR-2 with the FLAG epitope at its carboxyl terminus)
T2 chain: T1 sequence

[3] = target: T3, hKSR-2-FLAG (full-length human KSR-2 with the FLAG epitope at its carboxyl terminus) (human, UniProt Q6VAB6 122-950, limits assumed); assay: anti-FLAG immunoprecipitation from KSR-2-FLAG-transfected 293T lysate (about 1 mg protein), Western blot with commercial antibodies
T3 construct: Expressed in 293T cells from pcDNA-DEST-40; Tested in cell lysates, or eluted from anti-FLAG beads with FLAG peptide for the kinase assay
T3 sequence: T1 sequence
Method: To identify proteins that interact with human KSR-2, 293T cells were transfected with KSR-2-FLAG as described above. Cells transfected with FLAG vector alone served as a control. Cells were lysed as described above 48 h posttransfection. Protein concentrations were determined using the BCA protein assay. Cell lysates containing approximately 1 mg protein were subjected to anti-FLAG antibody immunoprecipitation followed by electrophoresis on a 2D gel resolved in only one dimension. The proteins were then transferred to nitrocellulose membranes and probed with various commercially available antibodies (Cell Signaling Technology, Beverly, Mass.) using the MN20SL Miniblotter (Immunetics, Cambridge, Mass.).

## Raf enzyme (Upstate Biotechnology, Inc.)
[1]
  Raf kinase activity (in vitro kinase assay, 33P phosphorylation of GST-MEK1-His6): Raf kinase activity was upregulated

B1: purified recombinant Cot/Tp12 (protein)
chain: MENLYASEEPAVYEPSLMTMCQDSNQNDERSKSLLLSGQEVPWLSSVRYGTVEDLLAFANHISNTAKHFYGQRPQESGILLNMVITPQNGRYQIDSDVLLIPWKLTYRNIGSDFIPRGAFGKVYLAQDIKTKKRMACKLIPVDQFKPSDVEIQACFRHENIAELYGAVLWGETVHLFMEAGEGGSVLEKLESCGPMREFEIIWVTKHVLKGLDFLHSKKVIHHDIKPSNIVFMSTKAVLVDFGLSVQMTEDVYFPKDLRGTEIYMSPEVILCRGHSTKADIYSLGATLIHMQTGTPPWVKRYPRSAYPSYLYIIHKQAPPLEDIADDCSPGMRELIEASLERNPNHRPRAADLLKHEALNPPREDQPR
[2]
  Cot/Tp12 kinase activity (in vitro kinase assay, 33P phosphorylation of GST-MEK1-His6): KSR-2 reduced Cot/Tp12 kinase activity in a dose-dependent manner

B2: P.SEK1 (enzyme, UniProt P45985 2-399, looked up)
chain: AAPSPSGGGGSGGGSGSGTPGPVGSPAPGHPAVSSMQGKRKALKLNFANPPFKSTARFTLNPNPTGVQNPHIERLRTHSIESSGKLKISPEQHWDFTAEDLKDLGEIGRGAYGSVNKMVHKPSGQIMAVKRIRSTVDEKEQKQLLMDLDVVMRSSDCPYIVQFYGALFREGDCWICMELMSTSFDKFYKYVYSVLDDVIPEEILGKITLATVKALNHLKENLKIIHRDIKPSNILLDRSGNIKLCDFGISGQLVDSIAKTRDAGCRPYMAPERIDPSASRQGYDVRSDVWSLGITLYELATGRFPYPKWNSVFDQLTQVVKGDPPQLSNSEEREFSPSFINFVNLCLTKDESKRPKYKELLKHPFILMYEERAVEVACYVCKILDQMPATPSSPMYVD
modifications: phosphorylated (sites not given)
notes: Endogenous protein of 293T cells, probed with a commercial antibody; also called phosphorylated SEK1
[3]
  binding result: no binding
